According to patent publication US20260098102A1 (NATIONAL UNIVERSITY CORPORATION KOBE UNIVERSITY, published 2026):

T1: monkey SIRPA protein (cynomolgus monkey, UniProt P78324 31-504 (human entry))
T1 construct: Expressed on 293α cells from pcDNA3.2 V5-DEST or pFLAG V5-DEST vectors; also called cynomolgus monkey SIRPA; cSIRPA
T1 chain: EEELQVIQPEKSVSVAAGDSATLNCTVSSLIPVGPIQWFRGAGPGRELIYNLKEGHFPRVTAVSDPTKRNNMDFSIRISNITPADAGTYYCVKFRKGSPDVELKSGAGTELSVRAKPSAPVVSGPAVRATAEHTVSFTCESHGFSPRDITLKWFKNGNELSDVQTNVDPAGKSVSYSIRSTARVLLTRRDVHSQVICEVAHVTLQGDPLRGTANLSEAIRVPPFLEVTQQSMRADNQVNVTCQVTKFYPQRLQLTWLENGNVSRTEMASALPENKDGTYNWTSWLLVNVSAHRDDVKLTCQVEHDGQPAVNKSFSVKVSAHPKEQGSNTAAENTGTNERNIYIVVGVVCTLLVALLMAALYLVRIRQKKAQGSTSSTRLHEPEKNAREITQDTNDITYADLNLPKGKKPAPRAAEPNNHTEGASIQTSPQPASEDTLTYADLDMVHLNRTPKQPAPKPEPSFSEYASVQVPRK

T2: mouse SIRPA_C57BL/6 (mouse (C57BL/6), UniProt P97797 32-513)
T2 construct: FLAG-tagged (pFLAG V5-DEST), on 293α cells
T2 sequence: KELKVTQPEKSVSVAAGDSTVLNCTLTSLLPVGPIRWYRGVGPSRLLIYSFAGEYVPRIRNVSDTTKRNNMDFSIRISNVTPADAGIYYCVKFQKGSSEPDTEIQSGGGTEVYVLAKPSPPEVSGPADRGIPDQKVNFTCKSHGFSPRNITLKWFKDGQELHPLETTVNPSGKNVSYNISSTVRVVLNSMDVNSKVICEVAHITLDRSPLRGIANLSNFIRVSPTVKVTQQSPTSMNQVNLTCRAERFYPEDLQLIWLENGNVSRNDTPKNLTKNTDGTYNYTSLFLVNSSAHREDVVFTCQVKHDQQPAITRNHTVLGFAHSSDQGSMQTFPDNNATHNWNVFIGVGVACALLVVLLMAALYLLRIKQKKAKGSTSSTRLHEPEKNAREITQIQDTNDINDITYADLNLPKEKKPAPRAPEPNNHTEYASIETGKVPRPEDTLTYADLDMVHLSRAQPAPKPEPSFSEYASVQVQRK

B1: humanized anti-SIRPA antibody hD13_H1L3 (antibody, human IgG4 S228P, kappa, F234A L235A, V domains shown)
VH: QVQLVESGGGVVQPGRSLRLSCAASGFTFSDYGMIWVRQAPGKGLEWVASISSSSSYIYYADSVKGRFTISRDNSKNRLYLQMNSLRAEDTAVYYCARRYYGFNYPFDYWGQGTMVTVSS
VL: DTQLTQSPSSLSASVGQRVTITCGASKSVRTYMHWYQQKPGKQPKLLIYSASNLEAGVPSRFSGSGSGTDFTLTISSLQPEDFATYYCQQSNEPPYTFGQGTKLEIKR
notes: hH1 heavy chain (IgG4proFALA) and hL3 kappa light chain; also called hD13_HIL3; HIL3 antibody
B2: humanized anti-SIRPA antibody hD13_H1L4 (antibody, human IgG4 S228P, kappa, F234A L235A, V domains shown)
VH: QVQLVESGGGVVQPGRSLRLSCAASGFTFSDYGMIWVRQAPGKGLEWVASISSSSSYIYYADSVKGRFTISRDNSKNRLYLQMNSLRAEDTAVYYCARRYYGFNYPFDYWGQGTMVTVSS
VL: DTVLTQSPDSLAVSLGQRATINCGASKSVRTYMHWYQQKPGQQPKLLIYSASNLEAGVPSRFSGSGSGTDFTLTISSLQAEDVAVYYCQQSNEPPYTFGQGTKVEIKR
notes: hH1 heavy chain (IgG4proFALA) and hL4 kappa light chain; also called hD13_HIL4; hD13_HIL4h
B3: humanized anti-SIRPA antibody hD13_H2L2 (antibody, human IgG4 S228P, kappa, F234A L235A, V domains shown)
VH: EVQLVESGGGVVQPGRSLRLSCAASGFTFSDYGMIWVRQAPGKGLEWVASISSSSSYIYYADSVKGRFTISRDNSKNTLYLQMNSLRAEDTAVYYCARRYYGFNYPFDYWGQGTMVTVSS
VL: AIQLTQSPSSLSASVGQRVTITCGASKSVRTYMHWYQQKPGKAPKLLIYSASNLEAGVPSRFSGSGSGTDFTLTISSLQPEDFATYYCQQSNEPPYTFGQGTKLEIKR
notes: hH2 heavy chain (IgG4proFALA) and hL2 kappa light chain; also called H2L2 antibody
B4: humanized anti-SIRPA antibody hD13_H2L3 (antibody, human IgG4 S228P, kappa, F234A L235A, V domains shown)
VH: EVQLVESGGGVVQPGRSLRLSCAASGFTFSDYGMIWVRQAPGKGLEWVASISSSSSYIYYADSVKGRFTISRDNSKNTLYLQMNSLRAEDTAVYYCARRYYGFNYPFDYWGQGTMVTVSS
VL: DTQLTQSPSSLSASVGQRVTITCGASKSVRTYMHWYQQKPGKQPKLLIYSASNLEAGVPSRFSGSGSGTDFTLTISSLQPEDFATYYCQQSNEPPYTFGQGTKLEIKR
notes: hH2 heavy chain (IgG4proFALA) and hL3 kappa light chain; also called H2L3 antibody
B5: human chimeric anti-SIRPA antibody cD13 (antibody, human IgG4 S228P, kappa, F234A L235A, V domains shown)
VH: EVQLVESGGGLVQPGRSLKLSCLASGFTFSDYGMIWVRQAPGKGLEWVASISSSSSYIYYADTVKGRFTISRENAKNTLFLHMTSLRSEDTALYYCARRYYGFNYPFDYWGQGVMVTVSS
VL: DTVLTQSPALAVSLGQRVTISCGASKSVRTYMHWYQQKSGQQPKLLIYSASNLEAGVPSRFSGSGSGTDFTLTIDPVEADDIANYYCQQSNEPPYTFGAGTKLELKR
notes: Human IgG4proFALA heavy chain, human kappa light chain; also called cD13 (IgG4pf); human chimeric antibody D13

Key:
monkey SIRPA protein = molecular target: T1, monkey SIRPA protein; experiment: cell-based ELISA on 293α cells expressing FLAG-tagged monkey SIRPA; Abs 490 normalized to FLAG tag [iii]
Method: (§1) The 293a cells, described in Example 1)-6, were prepared at 5× 10⁵ cells/mL in a 10% FBS-containing DMEM medium. pFLAG V5-DEST-SIRPA_V1-V10, pFLAG V5-DEST-monkey SIRPA, pFLAG V5-DEST-mouse SIRPA, or pFLAG V5-DEST was introduced into the cells using Lipofectamine LTX (Invitrogen), and 100 μL each was aliquoted to a 96-well plate (Corning Incorporated) and cultured overnight in a 10% FBS-containing DMEM medium at 37° C. under a 5% CO₂ condition. The obtained introduced cells were used for cell-based ELISA in a state that they adhered. After the culture supernatant was removed, 50 μL per well of hD13_HIL3, hD13_HIL4h, hD13_H2L2, hD13_H2L3, or cD13 prepared in Examples 6 and 7 or a control antibody was added to each of various SIRPA genes-introduced cells at a final concentration of 0 to 10,000 ng/ml, and the mixture was allowed to stand at 4° C. for one hour. Thereafter, binding to human SIRPA was evaluated in the same manner as in Example 5-1.

mouse SIRPA_C57BL/6 = molecular target: T2, mouse SIRPA_C57BL/6; experiment: cell-based ELISA on 293α cells expressing FLAG-tagged mouse SIRPA (C57BL/6); Abs 490 normalized to FLAG tag [i]
Method: as §1

human SIRPA_V7 = molecular target: T3, human SIRPA_V7 (human, UniProt P78324 31-504); experiment: cell-based ELISA on 293α cells expressing FLAG-tagged SIRPA_V7; Abs 490 normalized to FLAG tag [iii]
T3 construct: FLAG-tagged (pFLAG V5-DEST), on 293α cells; also called human SIRPA Variant 7
Method: as §1

human SIRPA_V8 = molecular target: T4, human SIRPA_V8 (human, UniProt P78324 31-504); experiment: cell-based ELISA on 293α cells expressing FLAG-tagged SIRPA_V8; Abs 490 normalized to FLAG tag [iv]
T4 construct: FLAG-tagged (pFLAG V5-DEST), on 293α cells; also called human SIRPA Variant 8
Method: as §1

human SIRPA_V3 = molecular target: T5, human SIRPA_V3 (human, UniProt P78324 31-504); experiment: cell-based ELISA on 293α cells expressing FLAG-tagged SIRPA_V3; Abs 490 normalized to FLAG tag [iii]
T5 construct: FLAG-tagged (pFLAG V5-DEST), on 293α cells; also called human SIRPA Variant 3
Method: as §1

human SIRPA_V1 protein = molecular target: T6, human SIRPA_V1 protein (human, UniProt P78324 31-504); experiment: blocking cell-based ELISA: peroxidase-labeled CD47-Fc (1 µg/mL) on 293α cells expressing SIRPA_V1; y axis = CD47-Fc signal relative to no antibody (100)
T6 construct: Expressed on 293α cells from pcDNA3.2 V5-DEST or pFLAG V5-DEST (FLAG-tagged) vectors; also called human SIRPA Variant 1; hSIRPA V1
Method: After the culture supernatant of human SIRPA or monkey SIRPA expression vector-introduced 293α cells prepared in Example 8)-1 was removed, 50 μL per well of hD13_HIL3, hD13_HIL4h, hD13_H2L2, or hD13_H2L3 diluted with 5% FBS-containing PBS to a final concentration of 0 to 10,000 ng/ml was added to each of pcDNA3.2 V5-DEST-SIRPA_V1, pcDNA3.2 V5-DEST-SIRPA_V2, pcDNA3.2 V5-DEST-monkey SIRPA, and pcDNA3.2 V5-DEST-introduced 293α cells, immediately followed by addition of peroxidase-labeled CD47-Fc prepared with 5% FBS-containing PBS at 1 μg/mL, and the mixture was allowed to stand at 4° C. for one hour. Thereafter, the SIRPA-CD47 binding inhibitory activity was evaluated in the same manner as in 1)-6-3.

T6 sequence (P78324 31-504 limits assumed): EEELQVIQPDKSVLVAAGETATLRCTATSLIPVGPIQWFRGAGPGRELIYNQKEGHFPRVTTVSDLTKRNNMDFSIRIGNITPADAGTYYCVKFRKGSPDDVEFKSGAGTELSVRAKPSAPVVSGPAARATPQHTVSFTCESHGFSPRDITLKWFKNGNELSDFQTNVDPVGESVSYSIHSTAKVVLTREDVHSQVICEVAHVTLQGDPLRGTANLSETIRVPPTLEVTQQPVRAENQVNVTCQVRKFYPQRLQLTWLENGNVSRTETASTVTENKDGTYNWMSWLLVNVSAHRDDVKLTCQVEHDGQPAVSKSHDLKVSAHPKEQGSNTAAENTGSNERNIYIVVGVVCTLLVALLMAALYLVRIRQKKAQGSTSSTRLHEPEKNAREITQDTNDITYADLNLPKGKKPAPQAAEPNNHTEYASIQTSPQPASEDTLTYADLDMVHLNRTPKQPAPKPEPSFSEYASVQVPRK
T3 sequence (P78324 other isoform, or with tags, fused parts or gaps limits assumed): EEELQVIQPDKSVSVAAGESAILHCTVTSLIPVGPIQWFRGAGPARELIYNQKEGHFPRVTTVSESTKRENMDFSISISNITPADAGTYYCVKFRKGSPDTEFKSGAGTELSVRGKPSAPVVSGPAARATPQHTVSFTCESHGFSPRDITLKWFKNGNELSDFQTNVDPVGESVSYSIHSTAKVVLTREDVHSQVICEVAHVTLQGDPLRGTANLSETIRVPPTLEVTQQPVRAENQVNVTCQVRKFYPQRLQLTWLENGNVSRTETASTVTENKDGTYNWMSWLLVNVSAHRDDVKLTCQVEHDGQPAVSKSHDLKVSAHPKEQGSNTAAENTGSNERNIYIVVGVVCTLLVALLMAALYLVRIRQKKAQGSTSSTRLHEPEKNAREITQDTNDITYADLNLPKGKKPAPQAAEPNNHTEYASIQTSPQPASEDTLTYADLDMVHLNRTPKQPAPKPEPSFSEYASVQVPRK
T5 sequence (P78324 other isoform, or with tags, fused parts or gaps limits assumed): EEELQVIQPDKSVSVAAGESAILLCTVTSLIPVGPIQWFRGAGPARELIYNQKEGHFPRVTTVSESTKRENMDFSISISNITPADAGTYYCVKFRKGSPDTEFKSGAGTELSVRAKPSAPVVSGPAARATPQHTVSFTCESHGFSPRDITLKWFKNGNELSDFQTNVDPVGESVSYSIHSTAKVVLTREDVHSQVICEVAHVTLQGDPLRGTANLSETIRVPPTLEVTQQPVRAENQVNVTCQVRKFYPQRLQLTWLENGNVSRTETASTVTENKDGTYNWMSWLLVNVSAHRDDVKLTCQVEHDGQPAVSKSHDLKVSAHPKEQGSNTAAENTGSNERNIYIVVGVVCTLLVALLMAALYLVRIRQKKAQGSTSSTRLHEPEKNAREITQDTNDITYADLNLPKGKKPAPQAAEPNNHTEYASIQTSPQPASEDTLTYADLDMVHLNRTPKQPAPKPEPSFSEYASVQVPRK

| Binder | EC50 (read off the curve) (monkey SIRPA protein) | binding result (mouse SIRPA_C57BL/6) | EC50 (read off the curve) (human SIRPA_V7) | EC50 (read off the curve) (human SIRPA_V8) | EC50 (read off the curve) (human SIRPA_V3) | IC50 (read off the curve) (human SIRPA_V1 protein) |
| --- | --- | --- | --- | --- | --- | --- |
| B1 | ~0.03 µg/mL | no binding (tested: 10000 ng/mL) | ~0.04 µg/mL | ~0.04 µg/mL | ~0.03 µg/mL | ~0.5 µg/mL |
| B2 | ~0.03 µg/mL | no binding (tested: 10000 ng/mL) | ~0.04 µg/mL | ~0.04 µg/mL | ~0.03 µg/mL | ~0.5 µg/mL |
| B3 | ~0.03 µg/mL | no binding (tested: 10000 ng/mL) | ~0.04 µg/mL | ~0.04 µg/mL | ~0.04 µg/mL | ~0.6 µg/mL |
| B4 | ~0.03 µg/mL | no binding (tested: 10000 ng/mL) | ~0.04 µg/mL | ~0.04 µg/mL | ~0.04 µg/mL | ~0.6 µg/mL |
| B5 | ~0.03 µg/mL | no binding (tested: 10000 ng/mL) | ~0.04 µg/mL | ~0.04 µg/mL | ~0.04 µg/mL | ~0.7 µg/mL |
